Experimental data published in patent US7083949.

Experiments:
Assay in all cases: cell-based or functional assay
[1] = target: recombinant human IL-13 (E. coli) (human) (UniProt P35225)
[2] = target: recombinant human IL-1 (human)
[3] = target: human IL-4 (human) (UniProt P05112)
[4] = target: human IL-13 (human) (UniProt P35225)
[5] = target: human IL-6 (human) (UniProt P05231)
Chain of human IL-6 (human) (P05231 30-212 limits assumed): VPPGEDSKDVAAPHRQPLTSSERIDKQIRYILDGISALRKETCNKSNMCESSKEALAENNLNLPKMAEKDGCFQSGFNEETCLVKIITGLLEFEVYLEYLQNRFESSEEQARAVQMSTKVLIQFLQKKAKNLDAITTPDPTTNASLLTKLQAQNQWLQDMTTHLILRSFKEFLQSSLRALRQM

Chain of human IL-4 (human) (P05112 25-153 limits assumed): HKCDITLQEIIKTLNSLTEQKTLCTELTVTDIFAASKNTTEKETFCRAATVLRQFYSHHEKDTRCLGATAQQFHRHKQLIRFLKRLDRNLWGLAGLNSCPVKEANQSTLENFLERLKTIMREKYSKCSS
Chain of human IL-13 (human) (P35225 35-146 limits assumed): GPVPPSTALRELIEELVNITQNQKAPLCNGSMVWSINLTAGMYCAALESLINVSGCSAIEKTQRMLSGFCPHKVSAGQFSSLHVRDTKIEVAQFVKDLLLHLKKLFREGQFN
Chain of recombinant human IL-13 (E. coli) (human) (P35225 35-146 limits assumed): as above

TF1 cell proliferation (MTS); IL-4 concentration at which growth is inhibited by 50% with 10 nM Trap [3] | TF1 cell proliferation (MTS); highest IL-4 concentration blocked by 10 nM Trap [3] | TF1 cell proliferation (MTS); IL-13 concentration at which growth is inhibited by 50% with 10 nM Trap [4] | TF1 cell proliferation (MTS); highest IL-13 concentration blocked by 10 nM Trap [4] | inhibition of IL-6-dependent proliferation of XG-1 cells (MTT) (fold molar excess over IL-6) [5] | Substance | further results
 |  |  |  |  | IL-4/IL-13 Trap 1132 (Fc fusion) | IC50, TF1 cell proliferation with 15 pM IL-13 (E. coli; Preprotech), MTS [1]: 64 pM
 |  |  |  |  | human IL-1 Trap (Fc fusion) | serum IL-6 in mice after injection of human IL-1 (in vivo) (fold molar excess) [2]: 150
3 to 4 nM | 1 nM | 4 to 5 nM | 2 nM |  | IL-4Rα.IL-13Rα1.Fc (Fc fusion) | 
 |  |  |  | > 1000 | gp130-Fc-CNTFRα-Fc ligand Trap (Fc fusion) | 
3 to 4 nM | 1 nM | 4 to 5 nM | 2 nM |  | IL-13Rα1.IL-4Rα.Fc (Fc fusion) | 
 |  |  |  | > 1000 | gp130-Fc homodimer (Fc fusion) | 
